# B1: YloC protein of Bacillus subtilis, purified, 8×His-Sumo tag removed (enzyme, UniProt O34441 1-291, looked up)
# chain: MIRSMTGFGSASKTQDDLSVSVELKSVNYRFKEVNARLPRPLLYFEDKLKQTILQHIQRGRIELFVSVDSDMLVEKRLEIDWPLLDEFVAAARDMKKRYQLSAEPDVMDFFKLDHVVQVHEEQTQNDKLEALIIDAAEEAVKGLCEMREKEGLLLAKDCLMHIDQLEELVRETELLAADVVSRYRERLYARIKEWTEDVLDESRLVTECAIFADRSDITEEITRLKSHFAQFRDILASGGAVGRKLDFLVQELNREANTIGSKANDHQITKLVVEMKSSIEKIKEQVQNIE
# Target: the molecule itself
# Test: SEC
protein,measurement,value
B1,stoichiometry N,~6

# Reference: PMC8906540 (RNA, 2022)
